According to article PMC10453824:

Tested on: T1, rVapB47 (rRv3407) (Mycobacterium bovis BCG Moreau), ORF:ad596061
T1 sequence: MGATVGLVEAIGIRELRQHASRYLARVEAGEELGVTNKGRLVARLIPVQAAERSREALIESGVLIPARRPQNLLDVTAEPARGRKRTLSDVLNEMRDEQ
Assay: EMSA

| Sequence | binding |
| --- | --- |
| TCGACGTGTACGGGCAGGCTAGCCGGGTGATCAGCGGGGCGCCGATGGAGATCGCTGGCTGATCAACCAGTAAGCGCAACGCAATTATGTAGCACCATGCGTGCTACCGTTGGGCTTGTGGA (double strand) [07promF-R2 (122 bp)] | binds |
| GGTGCTACATAATTGCGTTGCGCTTACTGGTTGATCAGCCAGCGATCTCCATCGGCGCCCCGCTGATCACCCGGCTAGCCTGCCCGTACACGTCGA (double strand) [07promF-R1 (96 bp)] | no binding |
